Experimental data as given in the Human Domainome abundance scans (Beltran et al. 2025).

B1: Protein S100-G, residues 1 to 79; numbered along this chain, P02633 (parent)
chain: MSAKKSPEELKGIFEKYAAKEGDPNQLSKEELKLLLQTEFPSLLKGPSTLDELFEELDKNGDGEVSFEEFQVLVKKISQ

Variants of: B1
Assay: abundance fitness (aPCA) (normalised: wild type 0, dead -1); higher = more abundant; growth selection in yeast, the domain comes from the species named
Settings: Bos taurus

Abundance fitness: each site, then its substitutions
N60: S 0.04; K -0.105; H -0.05; T -0.042; Q -0.043; W -0.091; I 0; F -0.156; D 0.058; E 0.108; G 0.027; P 0.004; A 0.101; C -0.102; R 0.014; L -0.034; M -0.164
L44: V 0.02; I 0.033; W 0.115; P 0.08; M -0.059; N 0.058; R -0.024; T 0.035; Q -0.037; H -0.035; Y 0.033; S -0.047
E56: Q -0.053; L -0.082; M -0.045; C 0.065; G -0.006; P 0.094; S 0.002; A -0.042; T 0.001; Y -0.06; W -0.076; K -0.071; R -0.02; H -0.005; I -0.208
E55: G 0.02; Q 0.031; P 0.012; T 0.005; M 0.004; I -0.035; K -0.047; Y 0.058; R 0.001; D 0.033; C -0.014; F 0.055; A -0.045; W 0.011; S -0.024; V -0.012; L 0.04; H 0.005
G63: A -0.009; M -0.019; F -0.124; E 0.118; N -0.082; P -0.036; H 0.093; S -0.06; K -0.017; L -0.13; R -0.029; D -0.005; C -0.04
L53: H 0.026; E 0.031; Q 0.028; R -0.031; P 0.033; Y -0.036; K -0.033; D 0.053; V 0.028; C -0.048; F 0.077; W 0.013; T 0.036; A 0.055; N 0.109; M 0.015; G -0.065; I 0.041
S48: Q 0.086; I 0.005; H -0.023; C -0.156; W -0.048; L -0.01; R 0.038; K 0.055; T -0.029; V -0.032; F -0.062; Y 0.016; P 0.015; D -0.138; E 0.042; G -0.042; M -0.056; A 0
E52: V -0.024; I -0.042; H 0.04; L -0.001; Q -0.023; G 0.026; W -0.084; D -0.056; A -0.005; R -0.046; F -0.068; P -0.037; S -0.009; K 0.022; N -0.002; C -0.122; M -0.031; Y -0.108; T 0.064
K59: R -0.003; H 0.013; T 0.007; Y -0.079; M 0.085; E -0.005; V 0.087; D -0.022; S 0.009; F 0.098; W 0.065; Q -0.009; G 0.093; I -0.105; N 0.009; A 0.055; L 0.052; C 0.021
P47: W -0.01; Y 0.042; S 0.073; Q 0.051; A 0.094; L -0.027; R -0.05; T 0.085; V 0.082; G -0.023; D -0.02; M -0.004; K -0.09; F -0.015; C 0.04
G61: V -0.021; C 0.026; P 0.007; L -0.063; N -0.072; E 0.067; T 0.006; Y -0.065; S 0.019; W -0.024; I -0.019; K -0.05; H -0.163; M -0.026; Q -0.021; F -0.006; R -0.042
D51: P 0.032; W -0.142; C 0.011; V -0.032; E -0.07; F -0.121; K -0.043; I -0.08; S -0.032; A -0.032; R -0.07; N 0.032; Q -0.091; Y -0.145; L -0.072; G -0.044; M 0.005
G46: L 0.02; R -0.008; A 0.042; M 0.053; H 0.039; K -0.001; W -0.087; T 0.007; D 0.028; S -0.017; E -0.025; P -0.041; F -0.005; I 0; C -0.023; Y 0.011; N 0.037; Q -0.008
T49: D -0.08; P -0.051; M -0.081; Q 0.04; A 0.007; C -0.12; K -0.103; G -0.043; R -0.057; I -0.021; S 0.018; H 0.047; F 0.032; W -0.076; N -0.109; E -0.026; Y 0
D58: Q 0.068; V -0.058; W -0.027; R -0.072; I 0.027; F 0.054; G 0.007; E -0.109; M -0.026; K -0.008; H -0.096; Y -0.008; C -0.022; L 0.054; S 0.025; T 0.021; N -0.053; P -0.078; A -0.107
L57: R -0.015; Y 0.03; A 0.079; K -0.071; D 0.081; G -0.117; H -0.031; C 0.024; N -0.042; P -0.012; F -0.014; E -0.044; Q 0.021; S 0.013; M 0.054; I 0.156; W 0.032
K45: T -0.005; N -0.022; M 0.002; P 0.003; Y -0.062; A -0.442; H 0.003; W -0.012; C -0.066; Q 0.042; E 0.005; R 0.002; V -0.029; D 0.07; L -0.018
F54: D 0.035; C -0.004; K -0.048; H -0.054; T 0.03; Y 0.064; L 0.04; P -0.073; V -0.015; I 0.051; A -0.007; S 0.023; R -0.093; Q 0.004; W 0.04; M 0.007; G -0.038; E -0.033; N 0.039
D62: F -0.138; K 0.004; L -0.042; S 0.043; Y -0.193; T -0.044; P -0.027; W -0.168; A -0.009; E 0.058; G -0.032; H -0.045; I -0.097; V -0.027; R -0.003
L50: K -0.001; C 0.042; R -0.044; G -0.078; V 0.082; A -0.044; Q -0.028; T -0.013; F -0.026; N -0.094; Y 0.024; M -0.01; E 0.007; S -0.034; P -0.059; D -0.068; I 0.009
